As usually defined, the stoichiometry N is the number of molecules, sites or subunits per partner or assembly.

From PMC10020445, “Mechanism underlying delayed rectifying in human voltage-mediated activation Eag2 channel” (Nature Communications, 2023) come the findings set out here.

This data set concerns the molecule itself. As to the kind of experiment: cryo-EM structure; purified hEag2 in 20 mM Tris-HCl pH 8.0, 150 mM KCl, 1 mM MgCl2, 0.03% digitonin, about 5 mg/ml; six maps (closed 1, closed 2, pre-open 1, pre-open 2, open, pore dilation but non-conducting) refined with C4 symmetry imposed.

B1: human Eag2 (hEag2) voltage-gated potassium channel (natural protein, UniProt Q8NCM2 1-988, looked up)
chain: MPGGKRGLVAPQNTFLENIVRRSSESSFLLGNAQIVDWPVVYSNDGFCKLSGYHRADVMQKSSTCSFMYGELTDKKTIEKVRQTFDNYESNCFEVLLYKKNRTPVWFYMQIAPIRNEHEKVVLFLCTFKDITLFKQPIEDDSTKGWTKFARLTRALTNSRSVLQQLTPMNKTEVVHKHSRLAEVLQLGSDILPQYKQEAPKTPPHIILHYCAFKTTWDWVILILTFYTAIMVPYNVSFKTKQNNIAWLVLDSVVDVIFLVDIVLNFHTTFVGPGGEVISDPKLIRMNYLKTWFVIDLLSCLPYDIINAFENVDEGISSLFSSLKVVRLLRLGRVARKLDHYLEYGAAVLVLLVCVFGLVAHWLACIWYSIGDYEVIDEVTNTIQIDSWLYQLALSIGTPYRYNTSAGIWEGGPSKDSLYVSSLYFTMTSLTTIGFGNIAPTTDVEKMFSVAMMMVGSLLYATIFGNVTTIFQQMYANTNRYHEMLNNVRDFLKLYQVPKGLSERVMDYIVSTWSMSKGIDTEKVLSICPKDMRADICVHLNRKVFNEHPAFRLASDGCLRALAVEFQTIHCAPGDLIYHAGESVDALCFVVSGSLEVIQDDEVVAILGKGDVFGDIFWKETTLAHACANVRALTYCDLHIIKREALLKVLDFYTAFANSFSRNLTLTCNLRKRIIFRKISDVKKEEEERLRQKNEVTLSIPVDHPVRKLFQKFKQQKELRNQGSTQGDPERNQLQVESRSLQNGASITGTSVVTVSQITPIQTSLAYVKTSESLKQNNRDAMELKPNGGADQKCLKVNSPIRMKNGNGKGWLRLKNNMGAHEEKKEDWNNVTKAESMGLLSEDPKSSDSENSVTKNPLRKTDSCDSGITKSDLRLDKAGEARSPLEHSPIQADAKHPFYPIPEQALQTTLQEVKHELKEDIQLLSCRMTALEKQVAEILKILSEKSVPQASSPKSQMPLQVPPQIPCQDIFSVSRPESPESDKDEIHF
notes: human Eag2 potassium channel (hEag2), UniProtKB Q8NCM2; gene placed before a PreScission protease site, followed by C-terminal EGFP and FLAG; the C-terminal GFP tag was removed with HRV 3C protease; the methods describe only one construct; FLAG stands after EGFP behind the protease site, so it leaves with the GFP tag; Residues with poor side-chain density were modelled as alanines in the …
In the case of B1, the “stoichiometry N” value came out at 4.
